Laboratory results reported in article PMC5932227.

Biological target: cynomolgus OX40, native, on activated cynomolgus CD4 T cells (cynomolgus (endogenous in primary CD4 T cells))
Assay: flow cytometry on cells

Kd: 0.024 nM
Substance: MEDI6383, human OX40 ligand IgG4P Fc fusion protein
